Columns and labels:
[1] = target: T1, LILRB2 chimeric receptor on LILRB2 reporter cells (extracellular domain of LILRB2 fused with … (UniProt Q8N423 22-460)); assay: cell-based or functional assay
LILRB1 = target: T2, LILRB1; assay: flow cytometry, reporter cells
T2 construct: also called LILRB1 reporter cells; not shown: transmembrane/intracellular domains of PILRb, the display part of the chimeric reporter receptor
Description: (§1) FIG. 29. Binding of LILRB2 antibodies on reporter cell line expressing ectodomain of LILR family proteins on cell surface. Bound antibodies were detected with anti-human Fc-specific secondary antibody (2nd Ab) conjugated to AF647. […] All incubations were performed for 30 minutes at 4° C. Data shown is mean fluorescence intensity after sample acquisition in flow cytometer.

LILRB3 = target: T3, LILRB3; assay: flow cytometry, reporter cells
T3 construct: also called LILRB3 reporter cells; not shown: transmembrane/intracellular domains of PILRb, the display part of the chimeric reporter receptor
Description: as §1

LILRB4 = target: T4, LILRB4; assay: flow cytometry, reporter cells
T4 construct: also called LILRB4 reporter cells; not shown: transmembrane/intracellular domains of PILRb, the display part of the chimeric reporter receptor
Description: as §1

LILRB5 = target: T5, LILRB5; assay: flow cytometry, reporter cells
T5 construct: also called LILRB5 reporter cells; not shown: transmembrane/intracellular domains of PILRb, the display part of the chimeric reporter receptor
Description: as §1

LILRA2 = target: T6, LILRA2; assay: flow cytometry, reporter cells
T6 construct: also called LILRA2 reporter cells; not shown: transmembrane/intracellular domains of PILRb, the display part of the chimeric reporter receptor
Description: as §1

LILRA3 = target: T7, LILRA3; assay: flow cytometry, reporter cells
T7 construct: also called LILRA3 reporter cells; not shown: transmembrane/intracellular domains of PILRb, the display part of the chimeric reporter receptor
Description: as §1

LILRA4 = target: T8, LILRA4; assay: flow cytometry, reporter cells
T8 construct: also called LILRA4 reporter cells
Description: as §1

LILRA5 = target: T9, LILRA5; assay: flow cytometry, reporter cells
T9 construct: also called LILRA5 reporter cells
Description: as §1

LILRA6 = target: T10, LILRA6; assay: flow cytometry, reporter cells
T10 construct: also called LILRA6 reporter cells
Description: as §1

[2] = target: T1, LILRB2 chimeric receptor on LILRB2 …; assay: flow cytometry, reporter cells
Description: as §1

[3] = target: T11, LILRA1 on reporter cells (extracellular domain) (UniProt O75019 17-461, limits assumed); assay: flow cytometry, reporter cells
T11 construct: extracellular domain
Description: as §1

LAIR1 on reporter cells = target: T12, LAIR1 on reporter cells (UniProt Q6GTX8 22-165, limits assumed); assay: flow cytometry, reporter cells
T12 sequence (looked up): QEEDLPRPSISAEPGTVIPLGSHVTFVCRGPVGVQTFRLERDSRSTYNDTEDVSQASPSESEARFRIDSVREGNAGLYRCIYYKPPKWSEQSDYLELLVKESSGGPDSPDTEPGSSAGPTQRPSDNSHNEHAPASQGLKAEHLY
Description: as §1

LILRB2-His antigen = target: T13, LILRB2-His antigen (UniProt Q8N423 22-460, limits assumed); assay: indirect ELISA, coated LILRB2-His
T13 construct: Coated on ELISA plates; also used for phage panning; also called LILRB2 antigen; not shown: His tag
Description: ELISA binding EC of LILRB2 antibodies. The ELISA binding EC₅₀ of these 24 antibodies were measured by indirect ELISA. […] After incubation, HRP-conjugated goat anti-human Fc secondary antibody was incubated with the plates. The TMB substrate was added for color development and measurement of absorbance at 450 nm.

[4] = target: T1, LILRB2 chimeric receptor on LILRB2 …; assay: flow cytometry on LILRB2 reporter cells, APC anti-human IgG
Source text: FIGS. 1A-C. Screening specific monoclonal antibodies for LILRB2. […] Binding of monoclonal antibodies was screened using flow cytometer on LILRB2 reporter cells. Bound antibodies were detected with Allophycocyanin (APC)-labeled goat anti-human IgG secondary antibody. (FIG. 1B) Quantification of binding ability of monoclonal antibodies to LILRB2 reporter cells.
Screening specific monoclonal antibodies for LILRB2. The inventors employed a stable reporter cell system to detect the binding ability of selected monoclonal antibodies to LILRB2. In this chimeric receptor reporter system, the extracellular domain (ECD) of LILRB2 is fused with transmembrane/intracellular domains of PILRb that associates with the adaptor protein DAP12 containing an immunoreceptor tyrosine-based activation motif. 27 monoclonal antibodies were screened. The LILRB2 reporter cells were incubated with selected monoclonal antibody, then labeled with (APC) goat anti-human IgG secondary antibody. […] The inventors generated LILRBAs and LILRBs reporters stably transduced with each receptor's extracellular domain (ECD).

[5] = target: T14, LILRB2 (antigen in solution, Octet RED 96) (UniProt Q8N423 22-460, limits assumed); assay: BLI (Octet RED 96), antibody on protein A biosensor, LILRB2 in solution
T14 construct: also called LILRB2 solution
Description: Affinity measurement of blocking antibodies. Affinities of the 5 blocking antibodies were measured on Octet RED 96 system.

[6] = target: T15, full length human LILRB2 stably expressed on HEK293 cells (human, UniProt Q8N423 22-597); assay: flow cytometry, HEK293 cells expressing full length human LILRB2
T15 construct: whole, on cells; also called HEK293_LILRB2
Description: FIG. 31. Binding of LILRB2 antibodies on HEK293 stably expressing full length human LILRB2. Fifty thousand cells were incubated with a dilution series (40-0.0006 μg/mL) of LILRB2 antibodies in a final volume of 100 μL. Bound antibodies were detected with anti-human Fc-specific secondary antibody conjugated to AF647. All incubations were performed for 30 minutes at 4° C. Data shown is averaged geometric mean fluorescence intensity ± standard error of the mean (s.e.m.) after sample acquisition (in duplicates) in flow cytometer (BD FACS Celesta) and subtracted by background fluorescence of samples incubated with secondary antibody only.

T10 sequence (chain, as listed by the source limits assumed): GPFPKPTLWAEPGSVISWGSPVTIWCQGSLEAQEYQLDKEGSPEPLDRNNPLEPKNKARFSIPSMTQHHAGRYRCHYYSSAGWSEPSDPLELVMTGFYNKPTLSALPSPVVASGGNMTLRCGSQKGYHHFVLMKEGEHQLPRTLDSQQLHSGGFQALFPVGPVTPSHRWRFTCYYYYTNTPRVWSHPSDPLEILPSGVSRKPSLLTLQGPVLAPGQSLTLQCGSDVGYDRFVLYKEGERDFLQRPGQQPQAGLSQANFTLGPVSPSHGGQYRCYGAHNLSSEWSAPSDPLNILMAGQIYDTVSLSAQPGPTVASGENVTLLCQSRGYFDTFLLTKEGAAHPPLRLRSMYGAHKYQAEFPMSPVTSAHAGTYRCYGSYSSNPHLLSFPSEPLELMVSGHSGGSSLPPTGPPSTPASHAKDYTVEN
T9 sequence (chain, as listed by the source limits assumed): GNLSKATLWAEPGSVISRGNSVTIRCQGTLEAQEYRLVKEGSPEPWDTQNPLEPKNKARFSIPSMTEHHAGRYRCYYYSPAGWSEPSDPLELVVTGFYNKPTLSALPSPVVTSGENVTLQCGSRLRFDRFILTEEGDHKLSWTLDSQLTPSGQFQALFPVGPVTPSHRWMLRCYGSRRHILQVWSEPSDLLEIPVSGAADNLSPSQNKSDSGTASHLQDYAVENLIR
T5 sequence (chain, as listed by the source limits assumed): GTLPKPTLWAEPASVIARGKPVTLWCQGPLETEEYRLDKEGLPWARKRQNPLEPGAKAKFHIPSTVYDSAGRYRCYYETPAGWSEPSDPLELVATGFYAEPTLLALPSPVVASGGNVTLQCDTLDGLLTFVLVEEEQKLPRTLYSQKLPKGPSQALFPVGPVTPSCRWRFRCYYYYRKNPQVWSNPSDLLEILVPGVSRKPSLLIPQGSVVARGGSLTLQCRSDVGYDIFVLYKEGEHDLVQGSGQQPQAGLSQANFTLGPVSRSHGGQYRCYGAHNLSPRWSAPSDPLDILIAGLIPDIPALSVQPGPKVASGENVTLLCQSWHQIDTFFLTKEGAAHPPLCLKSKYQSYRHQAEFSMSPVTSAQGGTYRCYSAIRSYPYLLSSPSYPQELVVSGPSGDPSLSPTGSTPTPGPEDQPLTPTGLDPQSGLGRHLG
T6 sequence (chain, as listed by the source limits assumed): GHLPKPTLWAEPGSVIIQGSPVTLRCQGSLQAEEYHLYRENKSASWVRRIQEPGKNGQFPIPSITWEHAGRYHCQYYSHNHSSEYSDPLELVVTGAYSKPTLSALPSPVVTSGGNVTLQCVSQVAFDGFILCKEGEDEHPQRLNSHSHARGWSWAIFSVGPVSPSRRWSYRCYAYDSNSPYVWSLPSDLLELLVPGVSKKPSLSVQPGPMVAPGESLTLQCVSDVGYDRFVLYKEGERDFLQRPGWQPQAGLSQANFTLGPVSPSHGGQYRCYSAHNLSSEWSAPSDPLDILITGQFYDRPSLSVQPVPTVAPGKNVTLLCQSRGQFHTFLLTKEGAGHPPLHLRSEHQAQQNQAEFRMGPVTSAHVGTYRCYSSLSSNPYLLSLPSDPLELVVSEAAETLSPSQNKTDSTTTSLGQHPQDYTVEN
T7 sequence (chain, as listed by the source limits assumed): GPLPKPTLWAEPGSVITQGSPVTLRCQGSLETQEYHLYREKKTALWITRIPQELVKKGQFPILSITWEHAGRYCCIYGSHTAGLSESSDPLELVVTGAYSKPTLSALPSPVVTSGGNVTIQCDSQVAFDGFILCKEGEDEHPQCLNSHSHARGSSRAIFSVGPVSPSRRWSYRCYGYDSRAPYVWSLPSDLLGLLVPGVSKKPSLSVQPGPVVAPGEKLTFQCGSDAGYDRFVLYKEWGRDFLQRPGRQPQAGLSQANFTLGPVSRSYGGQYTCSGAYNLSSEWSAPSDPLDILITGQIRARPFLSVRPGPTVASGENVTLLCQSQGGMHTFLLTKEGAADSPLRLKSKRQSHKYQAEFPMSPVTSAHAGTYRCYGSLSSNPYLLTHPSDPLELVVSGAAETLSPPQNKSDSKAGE
T2 sequence (chain, as listed by the source limits assumed): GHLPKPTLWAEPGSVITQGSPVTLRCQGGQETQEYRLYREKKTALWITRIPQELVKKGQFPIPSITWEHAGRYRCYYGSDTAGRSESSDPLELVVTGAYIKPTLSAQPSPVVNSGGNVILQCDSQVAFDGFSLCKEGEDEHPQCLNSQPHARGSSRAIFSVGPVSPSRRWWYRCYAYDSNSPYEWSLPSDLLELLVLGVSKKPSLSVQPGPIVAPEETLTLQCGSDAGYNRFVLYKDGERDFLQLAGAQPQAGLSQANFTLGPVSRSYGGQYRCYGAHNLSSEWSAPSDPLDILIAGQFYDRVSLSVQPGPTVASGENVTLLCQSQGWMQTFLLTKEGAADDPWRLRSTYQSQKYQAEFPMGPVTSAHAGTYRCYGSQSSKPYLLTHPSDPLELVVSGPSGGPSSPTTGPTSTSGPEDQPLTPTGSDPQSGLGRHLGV
T11 sequence (O75019 17-461 limits assumed): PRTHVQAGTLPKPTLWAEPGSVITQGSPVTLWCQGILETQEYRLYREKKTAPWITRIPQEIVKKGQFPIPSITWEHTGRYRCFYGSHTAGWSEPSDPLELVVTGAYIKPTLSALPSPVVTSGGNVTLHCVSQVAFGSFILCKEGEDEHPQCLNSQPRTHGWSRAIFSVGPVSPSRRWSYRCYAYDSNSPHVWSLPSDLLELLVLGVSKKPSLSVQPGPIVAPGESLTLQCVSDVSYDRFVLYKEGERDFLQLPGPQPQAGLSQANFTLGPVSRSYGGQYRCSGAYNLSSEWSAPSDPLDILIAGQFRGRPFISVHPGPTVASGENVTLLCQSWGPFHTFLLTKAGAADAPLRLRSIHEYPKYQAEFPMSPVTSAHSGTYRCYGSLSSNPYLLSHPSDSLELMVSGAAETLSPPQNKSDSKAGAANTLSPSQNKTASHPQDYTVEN
T8 sequence (chain, as listed by the source limits assumed): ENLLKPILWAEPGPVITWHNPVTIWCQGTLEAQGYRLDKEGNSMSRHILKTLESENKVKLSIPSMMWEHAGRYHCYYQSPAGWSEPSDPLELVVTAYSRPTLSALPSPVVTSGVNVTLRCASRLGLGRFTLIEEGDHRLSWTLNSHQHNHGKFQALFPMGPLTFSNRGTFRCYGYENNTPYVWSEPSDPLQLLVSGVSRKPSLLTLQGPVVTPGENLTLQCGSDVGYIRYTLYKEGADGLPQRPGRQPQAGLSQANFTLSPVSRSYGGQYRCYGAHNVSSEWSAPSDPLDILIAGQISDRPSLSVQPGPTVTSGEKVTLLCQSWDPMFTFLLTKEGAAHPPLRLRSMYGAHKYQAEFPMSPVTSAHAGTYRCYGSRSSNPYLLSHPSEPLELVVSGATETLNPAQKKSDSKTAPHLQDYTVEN

Row | Binder | Blocking potency (IC50) of GFP expression in LILRB2 reporter cells induced by coated ANGPTL2 [1] [µg/mL] | MFI (LILRB1) | binding result (LILRB1) | MFI (LILRB3) | binding result (LILRB3) | MFI (LILRB4) | binding result (LILRB4) | MFI (LILRB5) | binding result (LILRB5) | MFI (LILRA2) | binding result (LILRA2) | MFI (LILRA3) | binding result (LILRA3) | MFI (LILRA4) | binding result (LILRA4) | MFI (LILRA5) | binding result (LILRA5) | MFI (LILRA6) | binding result (LILRA6) | MFI [2] | also measured
1 | B2-17 (antibody, V domains shown, also called B2-17_HC; B2-17_LC) VH: EVQLLDSGPRLLKPSETLSLTCGVSGVSTSSTHWWSWVRQTPGKGLEWIGEILHNGNTNSNPSLKSRVSMSIDKSRNQFSLQLKSMTAADTAVYYCASASPNWGASGAFDAWAQGTMVTVSS VL: QSVLTQPPSASATPGQRVTISCSGSSSNIGSNPVNWYQQVPGMAPELVMYSDNQRPSGVPDRFSGSNSGTSASLAISGLQSEDEADYYCSTWDDSLNGLVFGTGTKVTVL | 0.405 | 9 | no binding | 10 | no binding | 13 | no binding | 10 | no binding | 10 | no binding | 10 | no binding | 10 | no binding | 10 | no binding | 11 | no binding | 1100 | MFI [3]: 11; binding result [3]: no binding; MFI (LAIR1 on reporter cells): 23; binding result (LAIR1 on reporter cells): no binding; EC50 (LILRB2-His antigen): 24.6 nM; percent of LILRB2 reporter cells labeled [4]: > 95%; Kd [5]: 35.9 nM; koff [5]: 0.0121 s⁻¹; kon [5]: 338000 M⁻¹ s⁻¹; EC50 [6]: 0.105 µg/mL
2 | B2-15 (antibody, V domains shown, also called B-15; B2-15_HC) VH: EVQLVQSGAEVKKSGASVKVSCKSSGYTFTNYGISWVRQAPGQGLEWMGWISGDAGDTKFAQKFQGRVTMTTDTSTTTTYMELRSLRSDDTAVYYCARDGEYIPMFRGFDNYYGLDVWGQGTLVSVSS VL: QSVLTQPPSASATPGQRVTISCSGRNANIGSNPVNWYQQLPGTAPRLVMYSNNQRPSGVPDRFSGSKSGTSASLAISGLQSEDEADYYCEGWDDSLNGYVFGTGTKVTVL | 0.341 | 9 | no binding | 9 | no binding | 14 | no binding | 11 | no binding | 10 | no binding | 10 | no binding | 9 | no binding | 11 | no binding | 10 | no binding | 910 | MFI [3]: 10; binding result [3]: no binding; MFI (LAIR1 on reporter cells): 22; binding result (LAIR1 on reporter cells): no binding; EC50 (LILRB2-His antigen): 46.5 nM; percent of LILRB2 reporter cells labeled [4]: > 95%; Kd [5]: 18.9 nM; koff [5]: 0.00565 s⁻¹; kon [5]: 299000 M⁻¹ s⁻¹; EC50 [6]: 0.101 µg/mL

— patent US20230068663A1 (University of Texas, published 2023)
